The target in data set [1] is T1, Cathepsin G (Homo sapiens) (UniProt P08311).
T1 sequence: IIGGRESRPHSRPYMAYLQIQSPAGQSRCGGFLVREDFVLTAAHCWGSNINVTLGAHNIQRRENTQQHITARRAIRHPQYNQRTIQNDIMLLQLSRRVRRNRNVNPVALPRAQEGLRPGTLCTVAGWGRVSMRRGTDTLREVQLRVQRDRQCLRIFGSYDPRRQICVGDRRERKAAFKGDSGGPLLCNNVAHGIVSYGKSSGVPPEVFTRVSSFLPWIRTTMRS
As to conditions: affinity chromatography; same buffer.

For data set [2], the target named is T1, Cathepsin G (Homo sapiens). Description: SPR.
Data set [3] deals with T1, Cathepsin G (Homo sapiens). The settings on record: affinity chromatography; same buffer. This is another data set of the same source.
In data set [4] the target is T2, Cathepsin G (Homo sapiens, UniProt P08311 P08311:21-244).
T2 sequence: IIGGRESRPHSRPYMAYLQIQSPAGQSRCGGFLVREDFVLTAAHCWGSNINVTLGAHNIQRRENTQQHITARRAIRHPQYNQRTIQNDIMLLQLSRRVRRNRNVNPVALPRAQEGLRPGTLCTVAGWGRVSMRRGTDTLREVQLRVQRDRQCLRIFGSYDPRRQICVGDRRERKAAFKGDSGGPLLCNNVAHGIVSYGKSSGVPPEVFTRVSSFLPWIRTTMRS
The settings on record: affinity chromatography; G-quartet control.

Data set [5] deals with T1, Cathepsin G (Homo sapiens). Description: SELEX. As to conditions: cycle 9 yield (0.4% at cycle 1); 30 mM Tris pH 7.5, 150 mM NaCl, 5 mM KCl, 5 mM MgCl2.
Data set [6] has as its target T2, Cathepsin G. Description: affinity chromatography; same buffer. The settings on record: tags: Europa Bioproducts or Calbiochem; from human neutrophils (SPR, amine-coupled to CM5 chip). The procedure: The affinity of the oligonucleotides was determined by affinity chromatography as performed in the selection. Different aliquots of each oligonucleotide were previously incubated with 15 μg of Cathepsin G in ice. The solution was then loaded in the min-chromatography column used for the selection and washed with 15 volumes of buffer IB. After one hour incubation, it was washed with six volumes of buffer EB. Fractions of the same volumes were collected and counted.
We evaluated the oligonucleotide binding to cathepsin G by affinity chromatography in analogy with the selection method. The affinity of the aptamer CG51 was firstly compared with AC and GT oligonucleotides of the same length that, as mentioned, are clearly unable to fold into any structure characterised by Watson-Crick base pairs or G quartets formation. The complementary sequence of CG51, called cmpCG51, was included as a control.

The mark [7] stands for this setting: relative potency vs GT 100, 25 C.

Like-named read-outs stand apart in the source and are kept apart here.

Usually Kd stands for the concentration at which binding is half-saturated. Turning to AC [(AC)60], in data set [1], the Kd was 1.2 nM.

For the molecule GT [GT 30], the binding signal in data set [2] (setting [7]) was 0.002.

In data set [3], AC [(AC)30] displayed a Kd of 0.8 nM.

In data set [2] (relative potency, reference standard, HBS-EP pH 7.4, 25 C), GT [GT 100] returned a binding signal of 1.

In turn, AC [AC 40] displayed a binding signal in data set [2] (setting [7]) of 0.0047.

GT [(GT)20 / GT 40] had a binding signal in data set [2] (setting [7]) of 0.016. In data set [1], this molecule yielded a Kd of 1.5 nM.

GT [(GT)10 / GT 20] gave a Kd in data set [1] of 2 nM.

Molecule THR thrombin aptamer came in with a dissociation constant Kd with Cathepsin G [4] of 4 nM.

Regarding GT [(GT)30 / GT 60], the binding signal in data set [2] (setting [7]) was 0.144. Further, the dissociation constant (Kd) in data set [3] worked out at 1 nM.

The molecule “CGTACGGAATTCGCTAGCNNNNNNNNNNNNNNNNNNNNNNNNNNNNNNNNNNNNNNNNNNNNNNNNNNNNNNNNNNNNGGATCCGAGCTCCACGTG [cycle 9 selected pool]” had a binding signal in data set [5] of 42%.

AC [AC 80] yielded a binding signal in data set [2] (setting [7]) of 0.017.

With GT [(GT)40 / GT 80], the binding signal in data set [2] (setting [7]) is 0.32. In data set [1], the Kd came to 1.2 nM.

B1: cmpCG51 (ssDNA)
DNA: ACACGAATACCCTCTGTGCTCAGCGTAACACCCAAGCGTATACCCACATATCACACGTTG
modifications: [NONE]
B1 came in with a Kd with Cathepsin G [6] of 0.6 nM.
